Reference: the nanobody polyreactivity screen of Harvey et al. (2022)

Experiment: yeast display, Sf9 membrane polyspecificity reagent, FACS + sequencing; frameworks hold sequencing errors
In short: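 A nanobody's polyreactivity label depends on the gate it was sorted from. Yeast display cells were stained with 10% biotinylated, detergent-solubilized Sf9 membrane reagent for 1 hour at 4 °C, enriched on streptavidin microbeads and sorted by FACS. The low and high (top ~1%) gates were set on anti-HA fluorescence for expression and streptavidin fluorescence for reagent binding.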

Row | Sequence | polyreactivity (PSR sort gate)
1 | QLQLVESGGGLVQAGGSLRLSCAASGLTICRYAMAWYRQAPGKEREFVATISQNGGRTYYADSVKGRFTISRDNAKNTVYLQMNSLKPEDTAVYYCAADDWRWGYDYWGQGTQVTVSS | high polyreactivity
2 | QVQLVESGGGLVQAGGSLRLTCAASGSIFQPNMGWNRHAPGKERELVASITTGTTKYADSVKGRFTISRDNAKNTVYLQMNSLKPEDTAVYYCAADLQATVYLIFGYWGQGTQVTVSS | low polyreactivity
3 | QVQIVESGGGLVQAGGSLRLSCAASGSILYEYAMGWYRQAPGKERELVAAISSGDSTNYADSVKGRFTISRDNAKNTVYLQMNSLNPEDTAVYDCNRDFPRERFTYKFDYWGQGTQVTVSS | low polyreactivity
4 | QVQLVESGGGLVQAGGSLRLSCAASGSTFKRNAMGWYRQATGKERELVAAISTNGGRTYYADSVKGRFTISRDNAKNTVYLQMNSLKPEDTAVYYCAVDLFDGVTKLNYDYWGQGTQVTVSS | low polyreactivity
5 | QVQLVESGGGLVQAGGSLRLSCAASGSIFRYYAMGWYRQAPGKERELVATITFNGGNTYYADSVKGRFTISRDNAKNTVYLQMNSLKPEDTAVYYCAATYVRRGPTRYYYWGQGTQVTVSS | high polyreactivity
6 | QVQLEESGGGLVQAGGSLRLSCAASGSIFGYNAMGWYRQAPGKERELVAAINVDGGRTYYADSVKGRFTISRDNAKNTVYLQMNSLTPEDTAVFYCAAAYRLQVGRREYWGQGTQVTVSS | high polyreactivity
7 | QVQLVESGGGLVQAGGSLRLSSAASGRIFGHYAMGWYRQAPGKERELVAAISRSGTRTYYADSVKGRFTISRDNAKNTVYLQMNSLKPEDTAVYYCAAYTYKGIYYYWGQGTQVTVSS | high polyreactivity
8 | QVQLVESGGGLVQAGGSLRLSCAASGRTLYYYAMGWYRQEPGKERELVAAISWSGGRTYYADSVKGRFTISRDNAKNTVYLQMNSLKAEDTAVYYCAAQYISRGYTVDYWGQGTQVTVSS | high polyreactivity
9 | QVHLVESGGGLVQAGGSLRLSCAASGRIFSNNAMGWYRQAPGKERELVATITGSGGRTYYADSVKGRFTISRDNAKNTVYLQMNSLKPEDTAVYYCAAVKRPDYYYWGQGTQVTVSS | high polyreactivity
10 | QVQLVESGGGLVQAGGSLRLSCAASGITFASNPMGWYRQAPGKERELVAAITRGDNTYYADSVKGRFTISRDNAKNTVYLQMNSLKPEDTAVYYCATEGYQIQYEHDYWGQGTQVTVSS | low polyreactivity
11 | QVQLVESGGGLVQAGGSLRISCAASGSTFGRNAMGWYSQAPGKERELVAAISSGGSTSYADSVKGRFTISRDNAKYTVYLQMNSLKPEDTAVYYCAAHSVGSQYDYWGQGTQVTVSS | low polyreactivity
12 | QVQLVESGGGLVQAGGSLRLSCAASGNIFSFYTMGWYRQAPGKERELVAAISWSGTSTYYADSVKGRFTISRDNAKNTVYLQMNSLKPEDTAVYYCAAERWWSGYEYWGQGTQVTVSS | high polyreactivity
13 | HVKLVDSGGGLVKAGGSLRLTCAASGITIYTNDMGWSRQARGKERELVAAITTNDGDTYYADSVKGRFTISRDNEKNTVYLQMNSLKPEDNAVYYCAADSGSTSEYEYWGQGTQVTVSS | low polyreactivity
14 | QVQLEESGGGLVQAGGSLRLTCAACGSIFGPNAMGWYRQAPGKERELVAAIDSSDGSTYYADSVKGRFTISRDNAKNSVYLQMNSLKPEDTAVYYCADELGYIYYSYWWQYDYWGQGTQVTVSS | high polyreactivity
15 | QVQLVESGGGVVQAGGSLRFSCAASGRTFVVNAMGWYREAPGKERELVAAITRRGGITYYADSVKGRFTISRDNAKNSVYLQMNSLTPEDTAVYYCAADRSYYPDTRTTYGYNYWGQGTQVTVSS | low polyreactivity
16 | QVQLVESGGGLVQAGGSLRLSCAASGRTFQFYAMGWYRQAPGKERELVAAIDLRGGSTYYADSVKGRFTISRDNAKNTVYLQMNSLKPEDTAVYYCNATRSKFGYFYRYDYWGQGTQVTVSS | low polyreactivity
17 | QVQLVESRGGLVQAGGSLRLSCAASGRIIGYNAMGCYRQAPGKERELVAAINSDGSKNYADSVKGRFTISRDNAKNTVYLQMNSLKPEDTAVYYSIKELYPVGDYEYWGQGSQVTVSS | low polyreactivity
18 | QVQLVESGGGLVQAGGSLRLSCAASGITFSRNPMGWYRQAPGKEWELVAAISWSGGSTYYADSVKGRYTISRDNAKNTVYLQMNSLKPEDTAVYYCNVGRRERLEGGYWGQGTQVTVSS | high polyreactivity
19 | QVQLVESGGGLVQAGGSLRLSCAASGFIFLGNAMGWYRQAPGKERELVAAISSGGSTYSDSVKGRFTISRDNAKHTVYLQMNSLKPEDTAVYYCAADSFIPPYDHWGQGTQVTVSS | low polyreactivity
20 | QVQLVESGGGLVQAGGSLRLSCAASGRIFAPNAMGWYRQAPGKEREFVASIRWNGGSTYYADSVKGRFTISRDNAKNTVYLQMNSLKPADTAVYYCAARGWGYRRNYVYAWYDYWGQGTQVTVSS | high polyreactivity
21 | QVQLVESGGGLVQAGGSLRLSCAASGIIFGSNAMGWYRQSPGKERELVAAISRNGGRTYYADSVKGRFTISRDNAKNTVYLQMNSLKPEDTAVYYCATRWPHYGGYYYWGQGTQVTVSS | high polyreactivity
22 | QVQLVESGGGLVQAGGSLRLSCSASGSTFFWNAMGWYRQAPGKESEFVAAISSSSGSTYYADSVKGRFTISRDNAKNTVYLQMNSLKPEDTAVYYCAARPWGNVFDSAVSYDYWGQGTQVTVSS | low polyreactivity

Row | Sequence | polyreactivity (PSR sort gate)
23 | QVQLVESGGGLVQAGGSLRLRCAASGSTFAYYAMGWYRQAPGKERELVAAITASATNTYYADSVKGRFTISRDHAKNTVYLQMNSLKPEDTAVYYCAADDVDVEHQASWDDYDSWGQGTQVTVSS | low polyreactivity
24 | QVQLEDSGGGLVQAGGSLRLSCAASGSTFLYYARGWYRQAPGKERELVAAITSGGSTYYADSVKGRFTISRDNAKNTVYLQMNSLKPEDTAVYYCAAASRRGYYYWGQGTQVTVSS | high polyreactivity
25 | QVQLVESGGGLVQAGGSLRLSCAASGIIFKVYAMGWYRQAPGKERELVAAISKSGGSTYYADSVKGRFTISRDNAKNTVYLQMNSLNPEDTAVYYCAARDYARYASYYYWGQGTQVTVSS | high polyreactivity
26 | QVQLVESGGGLVQAGGSLRLSCAASGRTFGYYAMGWYRQAPGQERELVAAISWSDSGTYYADSVKGRFTISRDNAKNTVYLQMNSLKPEDTAVYYCAKDEPYFVFRDTYDYWGQGTQVTVSS | high polyreactivity
27 | QVQLVESGGGLVQAGGSLRLSCAASGFTFNFYAMGWYRQAPGKERELVASITSSGARTYYADSVKGRFTISRDNAKNTVYLQMNSLKPEDTAVYYCAARVYRYSASRAYDYWGQGTQVTVSS | high polyreactivity
28 | QVQLVESGGGLVQAGGSLRLICAASGSTFSYNAMGWYRQAPGKEREFVAAITSSGSSTYYADSVKGRFTISRYNAKNTVYLQMNSLKPEDTAVYYCNAEVLFVAGQVQRNSGDYWGQGTQVTVSS | low polyreactivity
29 | QVQLVESGGGLVQAGGSLRLSCAASGRIFGFYTMGWYRQAPGKERELVAVINRGGRTYYADSVKGRFTISRDNAKNTVYLQMNSLKPEDTAVYYCAADYYTQGAYRGMDYWGQGTQVTVSS | high polyreactivity
30 | QVQLVESGGGLDQAGGSLRLSCAASGSILVSNDMGWYRQAPGKERELVAAISWSGGSTYYADSVKGRFTISRDNAKNTVYLQMNSLKPEDTAVYYCAAGFGFLFARQELDFDYWGQGTQVTVSS | low polyreactivity
31 | QVHLVESGGGLVQAGGSLRLSCAASGSTFRPYAMGWYRQAPGKERELVAAITGSGGSTYYADSVKGRFTISRDNAKNTVYLQMISLKPEDTAVYYCNAVSTWRYYYWGQGTQVTVSS | high polyreactivity
32 | QVQLVESGGGLVQAGGSLRLSCAASGSIFDVYAMGWYRQAPGKERELVAAIDSGGSSTYYADSVKGRFTISRDNAKNTVYLQMNSLKPEDTAVYYCAARPYYSWNYDYWGQGTQVTVSS | low polyreactivity
33 | QVQLVESGGGLVQAGGSLRLSCAASGFTFGRYAMGWYRQAPGKERELVAAISRTGGRTYYADSVKGRFTISRDNAKNTVYLQMNSLKPEDTAVYYCAADKGGTYFNGDSWGQGTLVTVSS | high polyreactivity
34 | QVQLEESGGGLVQAGGSLRLSCAASGSIFYSNAMGWYRQAPGKERELVAAISVSGVSTYYADSVKGRFTISRDNAKNTVYLQMNSLKPEDTAVYYCAAQYVTRGLYLVAFFSYDYWGQGTQVTVSS | low polyreactivity
35 | QVQLVESGGGLVQAGGSLRLSCAASGRTFWPNVMGWYRQAPGKERELVAAITWGDASTYYADSVKGRFTISRDNAKNTVYLQMNSLKPEDTAGYSCAASDYRSTYDYWGQGTQVTVSS | low polyreactivity
36 | QVQLVESGGGLVQAGGSLRLSCAASGSTFPYNAMGWYRPAPGKERELVAAISSGGITYYADSVKGRFTISRDNAKNTVYLQMNSLIPEDTAVYYCAATVLGDYEYWGQGTQVTVSS | low polyreactivity
37 | QVQLVESGGGLVQAGGSLRLSCAASGSTNSQYAMGWYRQAPGKERELVAAITTSDGSTNYADSVKGRFTISRDNAKNTVYLQMNSLKPEDTAVYYCNTEYFYFSFGYWGQGTQVTVSS | low polyreactivity
38 | QVQLVESGGGLVQAGGSLRLSCAATGITFYPNDMGWYRQAPGKERELVAAITTNDGDTYYADSVKGRFTISRDNAKNTVYLQMNSLKPEDTAVYYCAADSGSTSEYEYWGQGTQVTVSS | low polyreactivity
39 | QVQLVESGGGLVHAGGSLRLSCASSGRIFQYNTMGWYRQAPGKERELVAGISSGGSTNYADSVKGRFTISRDNAKNTVYLQMNSLKPEDTAVYYCAARAKRYNVRFDYWGQGTQVTVSS | high polyreactivity
40 | QVQLVESGGGLVHAGGSLRLSCAASGRIFQHYAMGWYRKAPGKERELVAAISWRGGSTYYADSVKGRFTISRDNAKNTVYLQMNSLIPEDTAVYYCAAGYPGRNPGFDYWGQGNQVTVSS | high polyreactivity
41 | QVQLVESGGGLVQAGGSLRLSCAASGITIWGYTMGWYRQAPGKERELVAAITSTGSTYYADSVKGRFTISRDNAKNHVYFQMNSQKPEDTSVYYCAATRGSSDYYYWGQGTQVTVSS | low polyreactivity
42 | QVQLVESGGGLVQAGGSLRLSCAASGSIFYPNAMGWYRQAPGKERELVAAITTGGSTNYADSVKGRFTISRDNAKNTVYLQMNSLKPEDTAVYYCNARHRYHSYTQPRWKYDYWGQGTQVTVSS | low polyreactivity
43 | QVQLVESGGGLVQAGGRLLLSCAASGGTFRVYAMGWYIQAPGKERELVASISWSSGITYYADSVKGRFTISRDNAKNTVYLQMNSLKPEDTAFYYCAAEGHVTYGAPGRLYRMGYWGQGTQVTVSS | low polyreactivity
